Entries after “also recorded” stand apart in the source; their conditions may differ.

The source of these data is patent US8969081B2, “Caudal motor neuron derived from embryonic stem cells under conditions essentially free of any retinoid” (The Trustees of Columbia University in the City of New York, priority 2008, dated 2015).

Experiment [1] has as its system differentiating ES cells / ES-MNs. Nature of the experiment: Rostro-caudal patterning of differentiating ES cells (Hox / positional marker immunostaining). It counts as cell-based, mouse. Conditions: for Rostro-caudal positional marker expression / segmental identity: EBs supplemented on Day 3, markers examined two to four days later; for Rostro-caudal identity of MNs after FGF2 (Hoxd9): 100 ng/ml on day 3. Here is the method: (§1) Differentiation of cervical level motor neurons from mouse ES cells was performed as previously described (Wichterle et al., 2002). For differentiation of caudal brachial level MNs from ES cells, ES cells were grown in ES cell medium for two days, dissociated and plated into non-adherent tissue culture dishes using ADFNK medium at a density of 20,000 cells/ml. Medium is changed each day but not on Day 3 and Day 4 of differentiation (three and four days after dissociation of ES cells and plating into differentiation medium, respectively). Addition of any factors to differentiating embryonic bodies (EBs) was performed on Day 3. These included: 1 μg/ml Dickopf-1 Dkk1 (R&D Systems), FGF Receptor Inhibitor (PD173074, 100 nM final concentration), FGFb (Recombinant Human, FTF-basic, 120-17, PeproTech), rhGdf11 (R&D Systems, Cat#1958-GD). GDNF (10 ng/ml, R&D Systems) was supplemented on Day 5 of differentiation in selected cultures.
(§2) For immunocytochemical analysis, embryonic bodies (EBs) were dissociated using 0.05% Trypsin-EDTA on Day 6 and plated at low densities on laminin coated coverslips using ADFNB medium supplemented with 10 ng/ml Glial cell-derived neurotrophic factor (GDNF). For quantification of MN subtypes, EBs were collected on Day 6 and dissociated using 0.05 Trypsin-EDTA. Dissociated cells were plated on laminin coated coverslips using ADFNB medium (DMEM/F12, Neurobasal, 1 ml B27 50× supplement and optional 5 ng/ml of GDNF to enhance survival of MN cultures) and fixed with 4% PFA one day later.
(§3) Immunocytochemistry on ES cell-derived MNs and EBs was performed as previously described (Wichterle et al., 2002). Antibodies against the following proteins were used in the analysis during this study: Otx2, Hoxa5, Hoxc8, Hoxc6, Hoxc9, Hoxd9, Hoxd10, Foxp1, Lhx3, Pea3, Scip, NeuN, dsRed, NF.
For each experiment, 10 distinct randomized image fields were taken using a confocal microscope LSM Zeiss Meta 510. Expression of all markers used for quantifications was gated to GFP positive cells, ES cell-derived spinal MNs. Images were analyzed for the expression of the above stated markers in the context of the ES cell-derived caudal brachial MNs. Each quantification is the result of at least three independent experiments (three independent differentiation experiments).
All experiments were performed with HBG3 ES cell line harboring Hb9-GFP transgene (Wichterle et al., 2002) and key experiments were confirmed using a control MM13 ES cell line. Differentiation of HBG3 ES cell line under RA/Hh conditions into rostral cervical MNs was performed as previously described (Wichterle et al., 2002; Wichterle and Peljto, 2008). For production of cervical MNs, ES cells were plated at 50,000 cells/ml in ADFNK differentiation medium [Advanced D-MEM/F-12 (Invitrogen): Neurobasal medium (Invitrogen) (1:1), 10% Knockout Serum Replacement (Invitrogen), […] L-Glutamine (Invitrogen), 0.1 mM β-mercaptoethanol (Sigma), and Pen/Strep (Invitrogen)]. Medium was completely changed on days 1, 2 and of differentiation. EBs were split 1:4 on day 2 of differentiation and the medium was supplemented with 1 μM all-trans retinoic acid (RA, Sigma) and Hh agonist (0.5 μM SAG, Calbiochem or 1 μM HhAg1.3, (Frank-Kamenetsky et al., 2002)). To generate caudal brachial level MNs from ES cells under FGF/Hh conditions, ES cells were plated into non-adherent tissue culture dishes in ADFNK medium (˜20,000 cells/ml). Embryoid bodies (EBs) were split 1:4 on day 2 of differentiation and the medium was changed on days 1, 2 and 5. Selected cultures were supplemented with the following reagents: 10 nM-1 μM RA, 10 nM-1 μM Hh Agonist, 1 μg/ml recombinant mouse Dickkopf-1 (R&D Systems), 50-100 nM FGF/VEGF Receptor Tyrosine Kinase Inhibitor (PD173074, Calbiochem) (Mohammadi et al., 1998), 100-625 ng/ml recombinant human bFGF (PeproTech), 20 ng/ml recombinant human Gdf11/Bmp11 (R&D Systems), 10 ng/ml recombinant rat GDNF (R&D Systems). […]

In experiment [2] the test system is ES-MNs. As to the kind of experiment: Motor pool identity of ES-MNs (Pea3, Scip) in response to GDNF. It counts as cell-based, mouse. Here is the method:
as §1, §2, §3
All experiments were performed with HBG3 ES cell line harboring Hb9-GFP transgene (Wichterle et al., 2002) and key experiments were confirmed using a control MM13 ES cell line. Differentiation of HBG3 ES cell line under RA/Hh conditions into rostral cervical MNs was performed as previously described (Wichterle et al., 2002; Wichterle and Peljto, 2008). For production of cervical MNs, ES cells were plated at 50,000 cells/ml in ADFNK differentiation medium [Advanced D-MEM/F-12 (Invitrogen): Neurobasal medium (Invitrogen) (1:1), 10% Knockout Serum Replacement (Invitrogen), […] L-Glutamine (Invitrogen), 0.1 mM β-mercaptoethanol (Sigma), and Pen/Strep (Invitrogen)]. Medium was completely changed on days 1, 2 and of differentiation. EBs were split 1:4 on day 2 of differentiation and the medium was supplemented with 1 μM all-trans retinoic acid (RA, Sigma) and Hh agonist (0.5 μM SAG, Calbiochem or 1 μM HhAg1.3, (Frank-Kamenetsky et al., 2002)). To generate caudal brachial level MNs from ES cells under FGF/Hh conditions, ES cells were plated into non-adherent tissue culture dishes in ADFNK medium (˜20,000 cells/ml). Embryoid bodies (EBs) were split 1:4 on day 2 of differentiation and the medium was changed on days 1, 2 and 5. Selected cultures were supplemented with the following reagents: 10 nM-1 μM RA, 10 nM-1 μM Hh Agonist, 1 μg/ml recombinant mouse Dickkopf-1 (R&D Systems), 50-100 nM FGF/VEGF Receptor Tyrosine Kinase Inhibitor (PD173074, Calbiochem) (Mohammadi et al., 1998), 100-625 ng/ml recombinant human bFGF (PeproTech), 20 ng/ml recombinant human Gdf11/Bmp11 (R&D Systems), 10 ng/ml recombinant rat GDNF (R&D Systems).
For immunocytochemical analysis, EBs were dissociated using 0.05% Trypsin-EDTA (Invitrogen) on day 6 and plated at low density on coverslips (Carolina Biological) first coated with 0.001% solution of poly-1-ornithine (Sigma; diluted in water) and then with mouse laminin ([…] final concentration in PBS; Invitrogen). Cultures were plated and maintained using ADFNB culture medium [Advanced D-MEM/F12:Neurobasal (1:1), 1× B27 supplement (Invitrogen), […] L-Glutamine, and 1× Pen/Strep]. […]

Where [3] appears, read: Example 1, 1 μg/ml on Day 3 of differentiation.

Consider “FGF-2: basic fibroblast growth factor, recombinant human bFGF”, for which the “Rostro-caudal positional marker expression / segmental identity” value in experiment [1] (Example 1) is on record as “induced predominantly thoracic identity marked by Hoxd9 expression”. Moreover, the “Induction of brachial or thoracic markers by FGF-2” value in experiment [1] (Example 1, in the presence of RA) is reported as “not sufficient to induce expression of brachial or thoracic markers”. The “Rostro-caudal identity of MNs after FGF2 (Hoxd9)” value is on record as “significant increase in Hoxd9 expressing cells” in experiment [1] (Example 2, stained day 7, listed as FGF) and “Hoxd9^+ thoracic; also recorded: increase in the number of Hoxd9^+ MNs” in experiment [1] (Example 2, stained day 7, listed as FGF2). Also, the “Specification of Hoxc8+ ES-MNs by FGF2 added to RA/Hh” value in experiment [1] (up to 625 ng/ml FGF2 added to 1 μM RA/Hh differentiation condition) was “did not result in the specification of Hoxc8^+ ES-MNs”.
Take `CCN(CC)CCCCNc1ncc2cc(-c3cc(OC)cc(OC)c3)c(NC(=O)NC(C)(C)C)nc2n1` [PD173074, reference compound]: the “Hoxc8+ cells” value in experiment [1] (Example 1, 100 nM on Day 3 of differentiation) was “complete loss of Hoxc8+ cells”. Also, the “Specification of Hoxc8+ ES-MNs” value in experiment [1] (Example 2, 50 nM on day 3 of differentiation (FIG. 22H)) is “generation of ES-MNs that expressed Hoxa5 but lacked Hoxc8 expression; also recorded: selectively prevented specification of caudal brachial Hoxc8^+ ES-MNs”.

B1: GDNF: glial cell line-derived neurotrophic factor, recombinant rat GDNF (protein, UniProt Q07731 78-211, looked up)
Glial cell line-derived …: SPDKQAAALPRRERNRQAAAASPENSRGKGRRGQRGKNRGCVLTAIHLNVTDLGLGYETKEELIFRYCSGSCEAAETMYDKILKNLSRSRRLTSDKVGQACCRPVAFDDDLSFLDDSLVYHILRKHSAKRCGCI
For B1, in experiment [2] (GDNF 10 ng/ml on day 5), the “Pea3+ ES-MNs expressing Isl1” value is on record as roughly 90% and the “Pea3+ ES-MNs expressing Lhx1” value is given as roughly 10%. Also, the “Percentage of Scip+ MNs, presence versus absence of GDNF” value in experiment [2] (brachial MNs) was “not significantly different”. In addition, in experiment [2] (caudal brachial ES-MNs, 10 ng/ml GDNF on day 5), the “LMC (FoxP1+) MNs expressing Pea3” value is recorded as roughly 20%. Besides, the “Pea3 expression in cervical (RA/Hh differentiated) MNs treated with GDNF” value in experiment [2] (cervical ES-MNs) is “no Pea3 expressing MNs were detected; also recorded: not sufficient to induce Pea3 expression; also recorded: do not acquire expression of Pea3”. In addition, the “Scip+ FoxP1+ ES-MNs” value in experiment [2] (presence or absence of GDNF) is on record as roughly 10%.

B2: Dkk1: Wnt antagonist, recombinant mouse Dickkopf-1 (protein, UniProt O54908 32-272, looked up)
Dickkopf-related protein 1: TLNSVLINSNAIKNLPPPLGGAGGQPGSAVSVAPGVLYEGGNKYQTLDNYQPYPCAEDEECGSDEYCSSPSRGAAGVGGVQICLACRKRRKRCMRHAMCCPGNYCKNGICMPSDHSHFPRGEIEESIIENLGNDHNAAAGDGYPRRTTLTSKIYHTKGQEGSVCLRSSDCAAGLCCARHFWSKICKPVLKEGQVCTKHKRKGSHGLEIFQRCYCGEGLACRIQKDHHQASNSSRLHTCQRH
As to B2, in experiment [1] (setting [3]), the “Neural specification (NeuN)” value is on record as “did not interfere with neural specification”; the “Otx2 expression (rostral neural identity)” value is on record as “induction of Otx2 expression”; the “Spinal identity (Hoxa5, Hoxc8, Hoxd9, Hoxd10 expression)” value was “lost their spinal identity”. For the same molecule, the “Otx2+ forebrain/midbrain neural cells” value in experiment [1] (Example 2, 1 μg/ml on day 2, Otx2 on day 5) is “appearance of Otx2^+ forebrain/midbrain neural cells”. For the same molecule, in experiment [1] (Example 2, 1 μg/ml on day 2 of differentiation), the “Specification of spinal cells (Hox and MN markers)” value is “lacked spinal character; also recorded: prevented specification of spinal cells”.

B3: Gdf11: Growth differentiation factor 11, recombinant human Gdf11/Bmp11 (protein, UniProt O95390 299-407, looked up)
Growth/differentiation factor …: NLGLDCDEHSSESRCCRYPLTVDFEAFGWDWIIAPKRYKANYCSGQCEYMFMQKYPHTHLVQQANPRGSAGPCCTPTKMSPINMLYFNDKQQIIYGKIPGMVVDRCGCS
Consider B3, for which the “Rostro-caudal positional marker expression / segmental identity” value in experiment [1] (Example 1) is “emergence of even more caudal Hoxd10 positive lumbar nerve cells”. For the same molecule, the “Rostro-caudal identity of MNs after Gdf11 (Hoxd10)” value in experiment [1] (Example 2, 20 ng/ml on day 3, stained day 7) is given as “Hoxd10^+ lumbar; also recorded: specification of MNs expressing Hoxd10; also recorded: significant increase in Hoxd10 expressing ES-MNs”.
